Experimental data reported in patent US20210355219A1 (HARPOON THERAPEUTICS, published 2021).

Experiments:
[1] = target: CD40 on purified human B cells (human, UniProt P25942 21-277); test: cell-based or functional assay
[2] = target: T1, C00703 huCD40::Fc (human); test: BLI (Octet); huCD40::Fc immobilized, masked protein at 100 nM in conditioned media; nm shift relative to unmasked control anti-Alb-anti-CD40
T1 construct: also called human CD40 protein; immobilized huCD40
T1 sequence (chain, as listed by the source limits assumed): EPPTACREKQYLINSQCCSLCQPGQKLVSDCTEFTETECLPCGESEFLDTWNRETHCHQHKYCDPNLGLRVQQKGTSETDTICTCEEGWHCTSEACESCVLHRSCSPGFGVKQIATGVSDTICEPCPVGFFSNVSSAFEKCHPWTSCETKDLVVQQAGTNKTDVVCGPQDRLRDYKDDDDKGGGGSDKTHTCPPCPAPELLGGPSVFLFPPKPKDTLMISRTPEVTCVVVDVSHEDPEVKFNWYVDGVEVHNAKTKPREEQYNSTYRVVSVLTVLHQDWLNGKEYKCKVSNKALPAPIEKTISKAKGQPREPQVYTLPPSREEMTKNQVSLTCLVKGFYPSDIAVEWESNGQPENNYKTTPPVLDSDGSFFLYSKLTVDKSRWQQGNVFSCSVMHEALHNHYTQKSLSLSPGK

CD40 on purified human B cells, sequence (P25942 21-277): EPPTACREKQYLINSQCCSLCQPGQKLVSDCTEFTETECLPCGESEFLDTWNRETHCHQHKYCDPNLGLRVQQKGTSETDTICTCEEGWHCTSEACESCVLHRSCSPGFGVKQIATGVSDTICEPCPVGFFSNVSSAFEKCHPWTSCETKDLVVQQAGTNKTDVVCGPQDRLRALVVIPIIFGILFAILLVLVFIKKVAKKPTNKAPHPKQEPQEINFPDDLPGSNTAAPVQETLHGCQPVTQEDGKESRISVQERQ

Row | Binder | Activity shift, B cell activation [1] [fold] | EC50 (M), B cell activation (percentage of CD86 positive B cells, flow cytometry, 48 hours) [1] [M] | Binding response (% of control) [2]
1 | anti-Alb mask070 L040 anti-CD40, C2905, C2764, L040 (+) Protease (antibody) heavy: not shown light: EVQLVESGGGLVQPGNSLTLSCAASGFTFSKFGMSWVRQARAASAGQGLEWVSSISGSGRDTLYADSVKGRFTISRDNAKTTLYLQMNSLRPEDTAVYYCTIGGSLSVSSQGTLVTVSSGGGGPQASTGRSGGGGSDIQMTQSPSSVSASVGDRVTITCRASQGIYSWLAWYQQKPGKAPNLLIYTASTLQSGVPSRFSGSGSGTDFTLTISSLQPEDFATYYCQQANIFPLTFGGGTKVEIKRTVAAPSVFIFPPSDEQLKSGTASVVCLLNNFYPREAKVQWKVDNALQSGNSQESVTEQDSKDSTYSLSSTLTLSKADYEKHKVYACEVTHQGLSSPVTKSFNRGEC | 1 | 1.6e-11 | 
2 | anti-Alb-CD-2-A10 masked anti-CD40 protein with anti-CD40 heavy chain SEQ ID No. 73 (bispecific antibody, human IgG1, kappa, Built as m2; Signal domain left out; Tested in conditioned media; also called aAlb-CD-2-A10) heavy: not shown light: EVQLVESGGGLVQPGNSLTLSCAASGFTFSKFGMSWVRQAVGTRETSGGLEWVSSISGSGRDTLYADSVKGRFTISRDNAKTTLYLQMNSLRPEDTAVYYCTIGGSLSVSSQGTLVTVSSGGGGSGGGSGGGGSGGGSDIQMTQSPSSVSASVGDRVTITCRASQGIYSWLAWYQQKPGKAPNLLIYTASTLQSGVPSRFSGSGSGTDFTLTISSLQPEDFATYYCQQANIFPLTFGGGTKVEIKRTVAAPSVFIFPPSDEQLKSGTASVVCLLNNFYPREAKVQWKVDNALQSGNSQESVTEQDSKDSTYSLSSTLTLSKADYEKHKVYACEVTHQGLSSPVTKSFNRGEC |  |  | 65 % of control
3 | anti-Alb-CD-2-D06 masked anti-CD40 protein with anti-CD40 heavy chain SEQ ID No. 73 (bispecific antibody, human IgG1, kappa, Built as m2; Signal domain left out; Tested in conditioned media; also called aAlb-CD-2-D06) heavy: not shown light: EVQLVESGGGLVQPGNSLTLSCAASGFTFSKFGMSWVRQAMNRHENDRGLEWVSSISGSGRDTLYADSVKGRFTISRDNAKTTLYLQMNSLRPEDTAVYYCTIGGSLSVSSQGTLVTVSSGGGGSGGGSGGGGSGGGSDIQMTQSPSSVSASVGDRVTITCRASQGIYSWLAWYQQKPGKAPNLLIYTASTLQSGVPSRFSGSGSGTDFTLTISSLQPEDFATYYCQQANIFPLTFGGGTKVEIKRTVAAPSVFIFPPSDEQLKSGTASVVCLLNNFYPREAKVQWKVDNALQSGNSQESVTEQDSKDSTYSLSSTLTLSKADYEKHKVYACEVTHQGLSSPVTKSFNRGEC |  |  | 42 % of control
4 | anti-Alb-CD-2-C05 masked anti-CD40 protein with anti-CD40 heavy chain SEQ ID No. 73 (bispecific antibody, human IgG1, kappa, Built as m2; Signal domain left out; Tested in conditioned media; also called aAlb-CD-2-C05) heavy: not shown light: EVQLVESGGGLVQPGNSLTLSCAASGFTFSKFGMSWVRQALGRHESSVGLEWVSSISGSGRDTLYADSVKGRFTISRDNAKTTLYLQMNSLRPEDTAVYYCTIGGSLSVSSQGTLVTVSSGGGGSGGGSGGGGSGGGSDIQMTQSPSSVSASVGDRVTITCRASQGIYSWLAWYQQKPGKAPNLLIYTASTLQSGVPSRFSGSGSGTDFTLTISSLQPEDFATYYCQQANIFPLTFGGGTKVEIKRTVAAPSVFIFPPSDEQLKSGTASVVCLLNNFYPREAKVQWKVDNALQSGNSQESVTEQDSKDSTYSLSSTLTLSKADYEKHKVYACEVTHQGLSSPVTKSFNRGEC |  |  | 31 % of control
5 | anti-Alb-CD-2-F09 masked anti-CD40 protein with anti-CD40 heavy chain SEQ ID No. 73 (bispecific antibody, human IgG1, kappa, Built as m2; Signal domain left out; Tested in conditioned media; also called aAlb-CD-2-F09) heavy: not shown light: EVQLVESGGGLVQPGNSLTLSCAASGFTFSKFGMSWVRQAPYSQPTKAGLEWVSSISGSGRDTLYADSVKGRFTISRDNAKTTLYLQMNSLRPEDTAVYYCTIGGSLSVSSQGTLVTVSSGGGGSGGGSGGGGSGGGSDIQMTQSPSSVSASVGDRVTITCRASQGIYSWLAWYQQKPGKAPNLLIYTASTLQSGVPSRFSGSGSGTDFTLTISSLQPEDFATYYCQQANIFPLTFGGGTKVEIKRTVAAPSVFIFPPSDEQLKSGTASVVCLLNNFYPREAKVQWKVDNALQSGNSQESVTEQDSKDSTYSLSSTLTLSKADYEKHKVYACEVTHQGLSSPVTKSFNRGEC |  |  | 75 % of control
6 | anti-Alb-CD-2-D07 masked anti-CD40 protein with anti-CD40 heavy chain SEQ ID No. 73 (bispecific antibody, human IgG1, kappa, Built as m2; Signal domain left out; Tested in conditioned media; also called aAlb-CD-2-D07) heavy: not shown light: EVQLVESGGGLVQPGNSLTLSCAASGFTFSKFGMSWVRQARAATAGSGLEWVSSISGSGRDTLYADSVKGRFTISRDNAKTTLYLQMNSLRPEDTAVYYCTIGGSLSVSSQGTLVTVSSGGGGSGGGSGGGGSGGGSDIQMTQSPSSVSASVGDRVTITCRASQGIYSWLAWYQQKPGKAPNLLIYTASTLQSGVPSRFSGSGSGTDFTLTISSLQPEDFATYYCQQANIFPLTFGGGTKVEIKRTVAAPSVFIFPPSDEQLKSGTASVVCLLNNFYPREAKVQWKVDNALQSGNSQESVTEQDSKDSTYSLSSTLTLSKADYEKHKVYACEVTHQGLSSPVTKSFNRGEC |  |  | 48 % of control

Further lines, results first:

Row | Activity shift, B cell activation [1] [fold] | EC50 (M), B cell activation (percentage of CD86 positive B cells, flow cytometry, 48 hours) [1] [M] | Binding response (% of control) [2] | Binder
7 | 2000 |  |  | anti-Alb mask070 L040 anti-CD40, C2905, C2764, L040 (-) Protease (bispecific antibody, human IgG1, kappa) heavy: not shown light: EVQLVESGGGLVQPGNSLTLSCAASGFTFSKFGMSWVRQARAASAGQGLEWVSSISGSGRDTLYADSVKGRFTISRDNAKTTLYLQMNSLRPEDTAVYYCTIGGSLSVSSQGTLVTVSSGGGGPQASTGRSGGGGSDIQMTQSPSSVSASVGDRVTITCRASQGIYSWLAWYQQKPGKAPNLLIYTASTLQSGVPSRFSGSGSGTDFTLTISSLQPEDFATYYCQQANIFPLTFGGGTKVEIKRTVAAPSVFIFPPSDEQLKSGTASVVCLLNNFYPREAKVQWKVDNALQSGNSQESVTEQDSKDSTYSLSSTLTLSKADYEKHKVYACEVTHQGLSSPVTKSFNRGEC
8 |  |  | 66 % of control | anti-Alb-CD-2-D09 masked anti-CD40 protein with anti-CD40 heavy chain SEQ ID No. 73 (bispecific antibody, human IgG1, kappa, Built as m2; Signal domain left out; Tested in conditioned media; also called aAlb-CD-2-D09) heavy: not shown light: EVQLVESGGGLVQPGNSLTLSCAASGFTFSKFGMSWVRQAVRTRGTSGGLEWVSSISGSGRDTLYADSVKGRFTISRDNAKTTLYLQMNSLRPEDTAVYYCTIGGSLSVSSQGTLVTVSSGGGGSGGGSGGGGSGGGSDIQMTQSPSSVSASVGDRVTITCRASQGIYSWLAWYQQKPGKAPNLLIYTASTLQSGVPSRFSGSGSGTDFTLTISSLQPEDFATYYCQQANIFPLTFGGGTKVEIKRTVAAPSVFIFPPSDEQLKSGTASVVCLLNNFYPREAKVQWKVDNALQSGNSQESVTEQDSKDSTYSLSSTLTLSKADYEKHKVYACEVTHQGLSSPVTKSFNRGEC
9 |  |  | 63 % of control | anti-Alb-CD-2-C11 masked anti-CD40 protein with anti-CD40 heavy chain SEQ ID No. 73 (bispecific antibody, human IgG1, kappa, Built as m2; Signal domain left out; Tested in conditioned media; also called aAlb-CD-2-C11) heavy: not shown light: EVQLVESGGGLVQPGNSLTLSCAASGFTFSKFGMSWVRQALGRRETSVGLEWVSSISGSGRDTLYADSVKGRFTISRDNAKTTLYLQMNSLRPEDTAVYYCTIGGSLSVSSQGTLVTVSSGGGGSGGGSGGGGSGGGSDIQMTQSPSSVSASVGDRVTITCRASQGIYSWLAWYQQKPGKAPNLLIYTASTLQSGVPSRFSGSGSGTDFTLTISSLQPEDFATYYCQQANIFPLTFGGGTKVEIKRTVAAPSVFIFPPSDEQLKSGTASVVCLLNNFYPREAKVQWKVDNALQSGNSQESVTEQDSKDSTYSLSSTLTLSKADYEKHKVYACEVTHQGLSSPVTKSFNRGEC
10 |  |  | 63 % of control | anti-Alb-CD-2-F10 masked anti-CD40 protein with anti-CD40 heavy chain SEQ ID No. 73 (bispecific antibody, human IgG1, kappa, Built as m2; Signal domain left out; Tested in conditioned media; also called aAlb-CD-2-F10) heavy: not shown light: EVQLVESGGGLVQPGNSLTLSCAASGFTFSKFGMSWVRQAVGPRETSGGLEWVSSISGSGRDTLYADSVKGRFTISRDNAKTTLYLQMNSLRPEDTAVYYCTIGGSLSVSSQGTLVTVSSGGGGSGGGSGGGGSGGGSDIQMTQSPSSVSASVGDRVTITCRASQGIYSWLAWYQQKPGKAPNLLIYTASTLQSGVPSRFSGSGSGTDFTLTISSLQPEDFATYYCQQANIFPLTFGGGTKVEIKRTVAAPSVFIFPPSDEQLKSGTASVVCLLNNFYPREAKVQWKVDNALQSGNSQESVTEQDSKDSTYSLSSTLTLSKADYEKHKVYACEVTHQGLSSPVTKSFNRGEC
11 |  |  | 57 % of control | anti-Alb-CD-1-F06 masked anti-CD40 protein with anti-CD40 heavy chain SEQ ID No. 73 (bispecific antibody, human IgG1, kappa, Built as m2; Signal domain left out; Tested in conditioned media; also called aAlb-CD-1-F06) heavy: not shown light: EVQLVESGGGLVQPGNSLTLSCAASGFTFSKFGMSWVRQAVRTRRTSGGLEWVSSISGSGRDTLYADSVKGRFTISRDNAKTTLYLQMNSLRPEDTAVYYCTIGGSLSVSSQGTLVTVSSGGGGSGGGSGGGGSGGGSDIQMTQSPSSVSASVGDRVTITCRASQGIYSWLAWYQQKPGKAPNLLIYTASTLQSGVPSRFSGSGSGTDFTLTISSLQPEDFATYYCQQANIFPLTFGGGTKVEIKRTVAAPSVFIFPPSDEQLKSGTASVVCLLNNFYPREAKVQWKVDNALQSGNSQESVTEQDSKDSTYSLSSTLTLSKADYEKHKVYACEVTHQGLSSPVTKSFNRGEC
12 |  |  | 67 % of control | anti-Alb-CD-1-A09 masked anti-CD40 protein with anti-CD40 heavy chain SEQ ID No. 73 (bispecific antibody, human IgG1, kappa, Built as m2; Signal domain left out; Tested in conditioned media; also called aAlb-CD-1-A09) heavy: not shown light: EVQLVESGGGLVQPGNSLTLSCAASGFTFSKFGMSWVRQAPGSQKPGLEWVSSISGSGRDTLYADSVKGRFTISRDNAKTTLYLQMNSLRPEDTAVYYCTIGGSLSVSSQGTLVTVSSGGGGSGGGSGGGGSGGGSDIQMTQSPSSVSASVGDRVTITCRASQGIYSWLAWYQQKPGKAPNLLIYTASTLQSGVPSRFSGSGSGTDFTLTISSLQPEDFATYYCQQANIFPLTFGGGTKVEIKRTVAAPSVFIFPPSDEQLKSGTASVVCLLNNFYPREAKVQWKVDNALQSGNSQESVTEQDSKDSTYSLSSTLTLSKADYEKHKVYACEVTHQGLSSPVTKSFNRGEC
13 |  |  | 64 % of control | anti-Alb-CD-2-B07 masked anti-CD40 protein with anti-CD40 heavy chain SEQ ID No. 73 (bispecific antibody, human IgG1, kappa, Built as m2; Signal domain left out; Tested in conditioned media; also called aAlb-CD-2-B07) heavy: not shown light: EVQLVESGGGLVQPGNSLTLSCAASGFTFSKFGMSWVRQAVRPRGTGGLEWVSSISGSGRDTLYADSVKGRFTISRDNAKTTLYLQMNSLRPEDTAVYYCTIGGSLSVSSQGTLVTVSSGGGGSGGGSGGGGSGGGSDIQMTQSPSSVSASVGDRVTITCRASQGIYSWLAWYQQKPGKAPNLLIYTASTLQSGVPSRFSGSGSGTDFTLTISSLQPEDFATYYCQQANIFPLTFGGGTKVEIKRTVAAPSVFIFPPSDEQLKSGTASVVCLLNNFYPREAKVQWKVDNALQSGNSQESVTEQDSKDSTYSLSSTLTLSKADYEKHKVYACEVTHQGLSSPVTKSFNRGEC
14 |  |  | 68 % of control | anti-Alb-CD-2-D08 masked anti-CD40 protein with anti-CD40 heavy chain SEQ ID No. 73 (bispecific antibody, human IgG1, kappa, Built as m2; Signal domain left out; Tested in conditioned media; also called aAlb-CD-2-D08) heavy: not shown light: EVQLVESGGGLVQPGNSLTLSCAASGFTFSKFGMSWVRQATSWRHERGLEWVSSISGSGRDTLYADSVKGRFTISRDNAKTTLYLQMNSLRPEDTAVYYCTIGGSLSVSSQGTLVTVSSGGGGSGGGSGGGGSGGGSDIQMTQSPSSVSASVGDRVTITCRASQGIYSWLAWYQQKPGKAPNLLIYTASTLQSGVPSRFSGSGSGTDFTLTISSLQPEDFATYYCQQANIFPLTFGGGTKVEIKRTVAAPSVFIFPPSDEQLKSGTASVVCLLNNFYPREAKVQWKVDNALQSGNSQESVTEQDSKDSTYSLSSTLTLSKADYEKHKVYACEVTHQGLSSPVTKSFNRGEC
